The text below walks through data of patent US20250027068.

Positions count from the first letter of the chain named.

First the molecules themselves.
B1: PRT-448 (protein)
chain: MVTSVWTKGVTPPTDFIKGEDVFHAPYKAGQGWYDITKTFNGKDDLLCGAATAGNMLHWWFDQNKDQIEAYLKEHPEKQKINFNGEQMFDVKEAIDTKDDQTNSKLFEYFKEKAFPYLSTKHLGVFPDHVLDMFINGYRLSLTNHGPTPVKEGSKDPRGGIFDAVFTRGDQSKLLTSRHDLKNKTLKEISDLIKQELTEGKALALSHTYANVRINHVINLWGADFDSNGNLEAIYVTDSDSNASIGMKKYFVGVNSAGKVAISAKEIEDDNIGAQVLGLFTLSTGQDIWNQTNLEHHHHHH
B2: PRT-460 (protein)
chain: B1 chain with A70R, D100S, N103D, A204G, N228E, E232K, E268K, D269E
B3: PRT-682 (protein)
chain: MQITSVWTKGVTPLTPEQFRNNNEDVIHAPYLANQGWYDITKTFNGKDNLLCGAATAGNMLHWWFDQNKTEIEAYLKKHPEKQKIIFNNQELFDLKKAIDTKDSQTNSQLFNYFRDKAFPNLSARQLGVMPDLVLDMFINGYYLNVFKTQSTDVNRPYQDKDKRGGIFDAVFTRGDQTTLLTSRHDLKNKGLNEISDIIKQELTEGKALALSHTYANVSISHVINLWGADFNAEGNLEAIYVTDSDANASIGMKKYFVGVNAHGKVAISAKKIEGENIGAQVLGLFTLSSGKDIWQKLSLEHHHHHH
B4: PRT-476 (protein)
chain: MVTSVWTKGVTPPTNFTYGEDVLHAPYVANQGWYDITKAFDGGDDLLCGAATAGNMLHWWFDQNKEQIENYLKKHPEKQKINFNGEQMFDVKEAIDTKDSQTNSELFNYFKEKAFPYLSTKHLGVFPDHVIDMFINGYRLSLTNHGPTPVKRGSKDPRGGIFDAVFTRGDQSKLLTNRHDLKNKTLKEISDLIKQELTEGKALGISHTYANVRINHVINLWGADFDAEGNLEAIYVTDSDSNASIGMKKYFVGVNSNGKVAISAKEIEEDNIGAQVLGLFTLSTGQDIWNQTNLEHHHHHH
B5: PRT-478 (protein)
chain: MITSVWTKGVTPPTDFIYGEDVLHAPYKAGQGWYDITKAFDGGDDLLCGAATAGNMLHWWFDQNKEQIENYLKKHPEKQKINFNGEQMFDVKEAIDTKDSQTNSELFNYFKEKAFPYLSTKHLGVFPDHVIDMFINGYRLSLTNHGPTPVKRQEKDPRGGIFDAVFGRGDQTKLLTNRHDFKEKTLNEISQLIKQELTEGKALGISHTYANVRINHVINLWGADFDAEGNLEAIYVTDSDSNASIGMKKYFVGVNSNGKVAISAKEIEEDNIGAQVLGLFTLSTGQKIWNKTNLEHHHHHH
B6: PRT-496 (protein)
chain: MVTSVWTKGVTPPTDFIKGEDVFHAPYKAGQGWYDITKTFNGKDDLLCGAATAGNMLHWWFDQNKEYIEAYLKKHPEKQKIMFGDQELLDVRKAINTKGSQKNSELFNYFRDKAFPNLSARRLGVMPDLVLDMFINGYYLNVTKTQTTDVNRTYQEKDKRGGIFDAVFTRGDQSKLLTSRHDLKNKGLKEISDLIKQELTEGKALGLSHTYANVRINHVINLWGADFDSDGNLKAIYVTDSDSNASIGMKKYFVGVNSAGKVAISAKEIKEDNIGAQVLGLFTLSTGQDIWNQTNLEHHHHHH
B7: PRT-454 (protein)
chain: MITSVWTKGVTPPTDFIKGEDVFHAPYKAGQGWYDITKAFDGGDDLLCGAATAGNMLHWWFDQNKDQIEAYLKEHPEKQKINFNGEQMFDVKEAIDTKDDQTNSELFNYFKEKAFPYLSTKHLGVFPDHVLDMFINGYRLSLTNHGPTPVKRQEKDPRGGIFDAVFGRGDQTKLLTSRHDFKEKTLNEISQLIKQELTEGKALALSHTYANVRINHVINLWGADFDAEGNLEAIYVTDSDSNASIGMKKYFVGVNSAGKVAISAKEIEDDNIGAQVLGLFTLSTGQKIWNKTNLEHHHHHH
B8: PRT-466 (protein)
chain: B7 chain with A70R, D100S, A204G, E268K, D269E
B9: PRT-455 (protein)
chain: B7 chain with F181L, E183N
B10: PRT-482 (protein)
chain: MVTSVWTKGVTPPTDFIKGEDVFHAPYKAGQGWYDITKTFNGKDNLLCGAATAGNMLHWWFDQNKDQIEAYLKEHPEKQKIIFNNQELFDLKAAIDTKDDQTNSKLFEYFKEKAFPYLSTKHLGVFPDHVLDMFINGYRLSLTNHGPTPVKEGSKDKRGGIFDAVFTRGVQSKLLTSRHDFKEKTLKEISDLIKQELTEGKALALSHTYANVRINHVINLWGADFDSNGNLEAIYVTDSDTNASIGMKKYFVGVNSAGKVAISAKEIEDDNIGAQVLGLFTLSTGQDIWNQTNLEHHHHHH
B11: PRT-503 (protein)
chain: MITSVWTKGVTPPTDFIKGEDVFHAPYKAGQGWYDITKAFDGGDDLLCGAATAGNMLHWWFDQNKEYIEAYLKKHPEKQKIMFGDQELLDVRKAINTKGSQKNSELFNYFRDKAFPNLSARRLGVMPDLVLDMFINGYYLNVTKTQTTDVNRQEQEKDKRGGIFDAVFGRGDQTKLLTSRHDLKNKGLNEISQLIKQELTEGKALGLSHTYANVRINHVINLWGADFDADGNLEAIYVTDSDSNASIGMKKYFVGVNSAGKVAISAKEIKEDNIGAQVLGLFTLSTGQKIWNKTNLEHHHHHH
B12: PRT-677 (protein)
chain: MQITSVWTKGVIPPTMDQFRYNNYDVFHAPYLPHQGWYDITKTFDGGDNLLCGAATAGNMLHWWFDQNKEYIENYLKKYPEKQKIIFNNQELFDLRKAINTKDSQTNSELFNYFRDKAFGNLSARQKGVMPDLVLDMFINGYYLNLFKTQSTDVNRPNDTRDKRGGFFDHVFGRGDQTKLLTARHDLYNGGLSDISQLIKQELQSGKALAISHTYGNVSSSHVINLWGADFDAEGNLEAIYVTDSDDRSSIGMKKYYVGINASGKVAISAKKIEGENVGAQVLGLFTLSSGKEIWKKLSLEHHHHHH
B13: PRT-513 (protein)
chain: MITSVWTKGVTPPAKFTQGEDVFHAPYVANQGWYDITKTFNGKDDLLCGAATAGNMLHWWFDQNKEEIEAYLKKHPEKQKIMFGDQELLDVRKVINTKDSQTNSALFNYFKDKAFPNLSARRLGVMPDLVLDMFINGYYLNVYKTQTTDVNRTYQTKDRRGGIFDAVFTRGDQSKLLTERHDLKNKTLKEISDLIKQELTEGKALGLSHTYANVRINHVINLWGADFDSNGNLEAIYVTDSDSNASIGMKKYFVGVNSAGKVAISAKEIKEDNIGAQVLGLFTLSTGQDIWNQTNLEHHHHHH
B14: PRT-508 (protein)
chain: B13 chain with A14T, K15D, T17I, Q18K, V28K, N30G

In the data set the target is pooled human IgG (human IgG1,2,3 and 4).
Turning to B1, the Enzyme Activity Endpoint Assay: Fab′2 is 0 ng/µL, the Enzyme Activity Endpoint Assay: Fc came out at 0 ng/µL, the Enzyme Activity Endpoint Assay: IgG came out at 2150 ng/µL and the Enzyme Activity Endpoint Assay: scIgG amounted to 0 ng/µL.

B2 came in with an Enzyme Activity Endpoint Assay: Fab′2 of 49 ng/µL, an Enzyme Activity Endpoint Assay: Fc of 108 ng/µL, an Enzyme Activity Endpoint Assay: IgG of 26 ng/µL and an Enzyme Activity Endpoint Assay: scIgG of 64 ng/µL.

As for B3, the Enzyme Activity Endpoint Assay: Fab′2 amounted to 0 ng/µL, the Enzyme Activity Endpoint Assay: Fc stood at 0 ng/µL, the Enzyme Activity Endpoint Assay: IgG was 0 ng/µL and the Enzyme Activity Endpoint Assay: scIgG came out at 0 ng/µL.

In turn, B4 registered an Enzyme Activity Endpoint Assay: Fab′2 of 0 ng/µL, an Enzyme Activity Endpoint Assay: Fc of 0 ng/µL, an Enzyme Activity Endpoint Assay: IgG of 2090 ng/µL and an Enzyme Activity Endpoint Assay: scIgG of 0 ng/µL.

B5 gave an Enzyme Activity Endpoint Assay: Fab′2 of 509 ng/µL, an Enzyme Activity Endpoint Assay: Fc of 453 ng/µL, an Enzyme Activity Endpoint Assay: IgG of 216 ng/µL and an Enzyme Activity Endpoint Assay: scIgG of 362 ng/µL.

Consider B6, for which the Enzyme Activity Endpoint Assay: Fab′2 was determined as 190 ng/µL, the Enzyme Activity Endpoint Assay: Fc was found to be 192 ng/µL, the Enzyme Activity Endpoint Assay: IgG was determined as 0 ng/µL and the Enzyme Activity Endpoint Assay: scIgG turned out to be 0 ng/µL.

As to B7, the Enzyme Activity Endpoint Assay: Fab′2 amounted to 217 ng/µL, the Enzyme Activity Endpoint Assay: Fc stood at 317 ng/µL, the Enzyme Activity Endpoint Assay: IgG was 94 ng/µL and the Enzyme Activity Endpoint Assay: scIgG was 653 ng/µL.

On to B8, for which the Enzyme Activity Endpoint Assay: Fab′2 was found to be 404 ng/µL, the Enzyme Activity Endpoint Assay: Fc came out at 362 ng/µL, the Enzyme Activity Endpoint Assay: IgG came to 161 ng/µL and the Enzyme Activity Endpoint Assay: scIgG was 303 ng/µL.

In turn, B9 yielded an Enzyme Activity Endpoint Assay: Fab′2 of 872 ng/µL, an Enzyme Activity Endpoint Assay: Fc of 416 ng/µL, an Enzyme Activity Endpoint Assay: IgG of 0 ng/µL and an Enzyme Activity Endpoint Assay: scIgG of 333 ng/µL.

Regarding B10, the Enzyme Activity Endpoint Assay: Fab′2 worked out at 261 ng/µL, the Enzyme Activity Endpoint Assay: Fc turned out to be 322 ng/µL, the Enzyme Activity Endpoint Assay: IgG was found to be 146 ng/µL and the Enzyme Activity Endpoint Assay: scIgG amounted to 738 ng/µL.

With B11, the Enzyme Activity Endpoint Assay: Fab′2 amounted to 0 ng/µL, the Enzyme Activity Endpoint Assay: Fc was 0 ng/µL, the Enzyme Activity Endpoint Assay: IgG was 0 ng/µL and the Enzyme Activity Endpoint Assay: scIgG was 0 ng/µL.

B12 displayed an Enzyme Activity Endpoint Assay: Fab′2 of 0 ng/µL, an Enzyme Activity Endpoint Assay: Fc of 0 ng/µL, an Enzyme Activity Endpoint Assay: IgG of 0 ng/µL and an Enzyme Activity Endpoint Assay: scIgG of 0 ng/µL.

B13 displayed an Enzyme Activity Endpoint Assay: Fab′2 of 397 ng/µL, an Enzyme Activity Endpoint Assay: Fc of 367 ng/µL, an Enzyme Activity Endpoint Assay: IgG of 374 ng/µL and an Enzyme Activity Endpoint Assay: scIgG of 0 ng/µL.

The protein B14 registered an Enzyme Activity Endpoint Assay: Fab′2 of 0 ng/µL, an Enzyme Activity Endpoint Assay: Fc of 0 ng/µL, an Enzyme Activity Endpoint Assay: IgG of 0 ng/µL and an Enzyme Activity Endpoint Assay: scIgG of 0 ng/µL.
